One test addresses T1, His-Smc3 (human, UniProt Q9UQE7 1-1217).
T1 construct: Full-length human SMC3 cloned by RT-PCR into pFastBac-HT A (His-tag vector); pFastBac-HT A is recalled to add the His tag at the N-terminus; also called His-tagged Smc3; source: Sf9 insect cells (Bac-to-Bac baculovirus), purified with nickel-nitrilotriacetic acid beads
The test can be described thus: pull-down; GST or GST-NudCL2 protein incubated with each of the purified His-tagged cohesin subunits from Sf9 cells; Western analysis. Conditions: both partners purified.

Another test has as its target T2, His-Smc1α (human, UniProt Q14683 1-1233).
T2 construct: Full-length human SMC1A cloned by RT-PCR into pFastBac-HT A (His-tag vector); pFastBac-HT A is recalled to add the His tag at the N-terminus; also called His-tagged Smc1α; SMC1A; source: Sf9 insect cells (Bac-to-Bac baculovirus), purified with nickel-nitrilotriacetic acid beads
T2 sequence (looked up): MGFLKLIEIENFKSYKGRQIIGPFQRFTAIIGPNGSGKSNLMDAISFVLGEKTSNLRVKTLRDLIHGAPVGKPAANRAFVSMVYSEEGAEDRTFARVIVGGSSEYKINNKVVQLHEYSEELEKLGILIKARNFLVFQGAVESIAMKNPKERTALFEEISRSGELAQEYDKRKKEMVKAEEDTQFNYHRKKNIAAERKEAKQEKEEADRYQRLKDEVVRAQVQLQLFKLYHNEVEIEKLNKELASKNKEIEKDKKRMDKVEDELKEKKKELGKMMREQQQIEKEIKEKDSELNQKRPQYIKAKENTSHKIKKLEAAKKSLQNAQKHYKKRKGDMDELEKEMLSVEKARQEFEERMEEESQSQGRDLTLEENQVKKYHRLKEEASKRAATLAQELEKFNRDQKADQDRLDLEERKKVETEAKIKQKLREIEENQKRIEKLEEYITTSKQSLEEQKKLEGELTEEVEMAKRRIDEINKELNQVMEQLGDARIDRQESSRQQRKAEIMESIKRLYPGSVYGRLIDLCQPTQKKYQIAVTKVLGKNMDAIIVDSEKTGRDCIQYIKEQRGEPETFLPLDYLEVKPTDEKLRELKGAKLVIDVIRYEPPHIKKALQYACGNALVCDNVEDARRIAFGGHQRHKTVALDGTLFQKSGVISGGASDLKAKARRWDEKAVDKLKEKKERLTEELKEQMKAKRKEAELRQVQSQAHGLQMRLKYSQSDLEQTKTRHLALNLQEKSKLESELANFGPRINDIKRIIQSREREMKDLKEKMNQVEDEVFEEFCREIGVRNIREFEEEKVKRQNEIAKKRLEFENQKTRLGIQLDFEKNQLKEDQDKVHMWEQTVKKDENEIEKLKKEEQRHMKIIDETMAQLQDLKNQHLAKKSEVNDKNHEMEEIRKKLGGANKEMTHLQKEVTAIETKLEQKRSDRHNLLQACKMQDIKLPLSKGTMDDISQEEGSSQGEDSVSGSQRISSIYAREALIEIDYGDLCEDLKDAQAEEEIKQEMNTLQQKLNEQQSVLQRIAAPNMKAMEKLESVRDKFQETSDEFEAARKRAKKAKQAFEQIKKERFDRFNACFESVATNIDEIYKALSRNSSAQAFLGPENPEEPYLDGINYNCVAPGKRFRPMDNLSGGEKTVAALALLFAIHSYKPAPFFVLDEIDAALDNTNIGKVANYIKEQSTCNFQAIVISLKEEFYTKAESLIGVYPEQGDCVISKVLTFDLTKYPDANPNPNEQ
The test is described as above. Conditions: both partners purified.

T1 sequence (Q9UQE7 whole entry): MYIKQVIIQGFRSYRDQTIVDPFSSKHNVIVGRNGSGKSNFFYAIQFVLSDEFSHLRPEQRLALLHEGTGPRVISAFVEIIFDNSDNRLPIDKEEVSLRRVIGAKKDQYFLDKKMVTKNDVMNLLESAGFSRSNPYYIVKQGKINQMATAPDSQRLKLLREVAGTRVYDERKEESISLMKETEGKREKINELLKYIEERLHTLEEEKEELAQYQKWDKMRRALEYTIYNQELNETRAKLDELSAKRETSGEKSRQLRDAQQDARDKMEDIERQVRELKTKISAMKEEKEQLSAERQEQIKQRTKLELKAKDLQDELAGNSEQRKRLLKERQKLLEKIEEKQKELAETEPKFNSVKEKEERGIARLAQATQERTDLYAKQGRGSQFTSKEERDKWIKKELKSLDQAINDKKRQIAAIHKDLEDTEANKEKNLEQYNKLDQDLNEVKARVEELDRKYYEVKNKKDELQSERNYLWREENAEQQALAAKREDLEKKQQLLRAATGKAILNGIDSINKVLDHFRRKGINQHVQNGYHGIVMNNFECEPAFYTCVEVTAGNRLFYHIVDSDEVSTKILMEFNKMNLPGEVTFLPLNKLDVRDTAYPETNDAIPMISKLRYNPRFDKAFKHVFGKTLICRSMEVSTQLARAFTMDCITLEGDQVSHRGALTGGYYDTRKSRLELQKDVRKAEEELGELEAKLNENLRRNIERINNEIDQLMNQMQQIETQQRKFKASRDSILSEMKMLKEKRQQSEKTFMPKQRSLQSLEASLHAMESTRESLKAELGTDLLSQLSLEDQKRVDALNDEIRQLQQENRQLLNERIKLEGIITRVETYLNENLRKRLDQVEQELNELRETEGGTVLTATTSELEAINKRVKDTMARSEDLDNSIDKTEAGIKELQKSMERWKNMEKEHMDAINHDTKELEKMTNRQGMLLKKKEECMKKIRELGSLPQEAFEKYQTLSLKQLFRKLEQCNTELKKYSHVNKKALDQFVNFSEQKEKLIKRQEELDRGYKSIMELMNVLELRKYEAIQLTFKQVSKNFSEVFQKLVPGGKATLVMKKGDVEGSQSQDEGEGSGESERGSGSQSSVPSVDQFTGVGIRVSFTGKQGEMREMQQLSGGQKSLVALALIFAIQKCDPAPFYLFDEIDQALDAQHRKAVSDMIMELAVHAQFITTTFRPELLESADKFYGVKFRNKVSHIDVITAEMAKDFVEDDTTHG

B1: GST-NudCL2 (natural protein, human, UniProt Q8WVJ2 1-157, looked up)
chain: MSAPFEERSGVVPCGTPWGQWYQTLEEVFIEVQVPPGTRAQDIQCGLQSRHVALSVGGREILKGKLFDSTIADEGTWTLEDRKMVRIVLTKTKRDAANCWTSLLESEYAADPWVQDQMQRKLTLERFQKENPGFDFSGAEISGNYTKGGPDFSNLEK
notes: NudCL2 (NudC-like protein 2), human; also called NudC-like protein 2; source: purified from bacteria
B1: the binding result with His-Smc3 and with His-Smc1α was “binds” each time.

These data come from article PMC6339671, “NudCL2 is an Hsp90 cochaperone to regulate sister chromatid cohesion by stabilizing cohesin subunits” (Cellular and Molecular Life Sciences: CMLS, 2018).
